Results from PMC7074700.

Target: Helicobacter pylori CbpA, wild type, carboxyl-terminal His-tagged (H. pylori (strain G27))
Assay: cross-linking; 5 uM purified protein with 0, 0.0025, 0.005 and 0.01% glutaraldehyde in 1x binding buffer (10 mM Tris-HCl pH 8.0, 50 mM NaCl, 10 mM KCl, 5 mM MgCl2, 0.1 mM DTT, 0.01% NP40), 1 hour at 25 °C; SDS-PAGE, Coomassie staining

## Helicobacter pylori CbpA, wild type, carboxyl-terminal His-tagged (natural protein)
  stoichiometry N: 2
